{
  "source": "patent US20220332804A1",
  "about": "(CSL INNOVATION, published 2022)",
  "assay_in_all_cases": "SPR, antibody captured, C2 as analyte;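 note: biacore at 37 °C, anti-C2 mAbs held by immobilised goat anti-human IgG, C2 alanine or serine mutants injected, double-referenced sensorgrams fitted to a 1:1 kinetic or steady-state model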",
  "key": {"human C2 Y328A": {"target": "T1, human C2 Y328A (human, UniProt P06681 21-752)", "T1 sequence": "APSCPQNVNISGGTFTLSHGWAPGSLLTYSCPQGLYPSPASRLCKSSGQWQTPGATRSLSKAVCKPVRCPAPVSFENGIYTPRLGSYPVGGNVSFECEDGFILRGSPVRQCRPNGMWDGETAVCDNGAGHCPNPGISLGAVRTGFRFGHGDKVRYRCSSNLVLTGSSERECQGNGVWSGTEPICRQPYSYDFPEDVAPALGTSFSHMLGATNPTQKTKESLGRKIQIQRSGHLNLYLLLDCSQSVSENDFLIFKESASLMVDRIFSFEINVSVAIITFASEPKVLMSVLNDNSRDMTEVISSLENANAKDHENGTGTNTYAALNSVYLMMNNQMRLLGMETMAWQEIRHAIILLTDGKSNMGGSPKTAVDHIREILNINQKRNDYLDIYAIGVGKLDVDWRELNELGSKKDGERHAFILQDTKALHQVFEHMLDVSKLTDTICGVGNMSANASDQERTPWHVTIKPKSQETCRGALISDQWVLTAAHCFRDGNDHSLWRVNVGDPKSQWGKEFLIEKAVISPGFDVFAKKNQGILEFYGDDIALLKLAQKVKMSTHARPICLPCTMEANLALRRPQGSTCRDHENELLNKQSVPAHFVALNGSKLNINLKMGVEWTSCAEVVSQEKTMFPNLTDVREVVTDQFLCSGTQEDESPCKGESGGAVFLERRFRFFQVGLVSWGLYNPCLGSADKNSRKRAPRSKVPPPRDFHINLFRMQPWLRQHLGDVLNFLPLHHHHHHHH"}, "human C2 D454A": {"target": "T2, human C2 D454A (human, UniProt P06681 21-752)", "T2 sequence": "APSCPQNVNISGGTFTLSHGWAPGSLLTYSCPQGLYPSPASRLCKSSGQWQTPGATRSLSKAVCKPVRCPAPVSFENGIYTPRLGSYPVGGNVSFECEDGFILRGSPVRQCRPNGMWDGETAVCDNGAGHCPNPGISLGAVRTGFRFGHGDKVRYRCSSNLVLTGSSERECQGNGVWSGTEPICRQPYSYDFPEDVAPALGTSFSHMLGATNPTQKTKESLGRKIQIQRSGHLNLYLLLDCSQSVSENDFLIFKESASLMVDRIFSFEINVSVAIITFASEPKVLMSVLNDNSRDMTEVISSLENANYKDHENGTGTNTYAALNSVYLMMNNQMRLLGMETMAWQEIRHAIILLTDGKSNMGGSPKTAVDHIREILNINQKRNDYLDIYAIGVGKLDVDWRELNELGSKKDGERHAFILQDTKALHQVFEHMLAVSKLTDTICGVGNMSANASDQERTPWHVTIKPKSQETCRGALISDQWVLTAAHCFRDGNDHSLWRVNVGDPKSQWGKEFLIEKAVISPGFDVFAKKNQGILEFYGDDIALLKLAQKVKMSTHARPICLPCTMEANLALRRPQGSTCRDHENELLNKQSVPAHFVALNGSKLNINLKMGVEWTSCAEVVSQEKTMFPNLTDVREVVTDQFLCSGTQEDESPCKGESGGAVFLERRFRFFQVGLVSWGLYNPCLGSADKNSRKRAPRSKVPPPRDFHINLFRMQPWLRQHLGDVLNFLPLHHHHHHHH"}, "human C2 D441A": {"target": "T3, human C2 D441A (human, UniProt P06681 21-752)", "T3 sequence": "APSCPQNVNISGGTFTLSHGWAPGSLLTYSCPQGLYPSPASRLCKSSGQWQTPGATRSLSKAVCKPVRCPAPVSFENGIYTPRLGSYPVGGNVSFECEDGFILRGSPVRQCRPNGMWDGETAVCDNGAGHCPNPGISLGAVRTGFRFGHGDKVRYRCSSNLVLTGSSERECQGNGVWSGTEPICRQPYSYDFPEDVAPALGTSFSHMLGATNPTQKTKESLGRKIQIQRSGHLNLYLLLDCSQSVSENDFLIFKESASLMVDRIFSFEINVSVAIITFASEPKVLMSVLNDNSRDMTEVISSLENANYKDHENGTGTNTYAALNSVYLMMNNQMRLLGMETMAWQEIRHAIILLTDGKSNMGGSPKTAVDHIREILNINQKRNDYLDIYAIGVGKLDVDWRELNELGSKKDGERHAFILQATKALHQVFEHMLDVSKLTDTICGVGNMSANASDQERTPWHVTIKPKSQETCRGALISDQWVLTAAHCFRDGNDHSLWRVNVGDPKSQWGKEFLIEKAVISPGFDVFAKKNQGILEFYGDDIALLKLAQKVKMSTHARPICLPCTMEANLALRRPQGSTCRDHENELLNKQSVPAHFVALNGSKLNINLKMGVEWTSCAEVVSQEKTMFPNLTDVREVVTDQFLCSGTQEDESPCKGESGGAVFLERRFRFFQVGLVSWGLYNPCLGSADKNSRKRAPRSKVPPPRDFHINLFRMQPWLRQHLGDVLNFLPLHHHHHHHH"}, "human C2 E275A": {"target": "T4, human C2 E275A (human, UniProt P06681 21-752)", "T4 sequence": "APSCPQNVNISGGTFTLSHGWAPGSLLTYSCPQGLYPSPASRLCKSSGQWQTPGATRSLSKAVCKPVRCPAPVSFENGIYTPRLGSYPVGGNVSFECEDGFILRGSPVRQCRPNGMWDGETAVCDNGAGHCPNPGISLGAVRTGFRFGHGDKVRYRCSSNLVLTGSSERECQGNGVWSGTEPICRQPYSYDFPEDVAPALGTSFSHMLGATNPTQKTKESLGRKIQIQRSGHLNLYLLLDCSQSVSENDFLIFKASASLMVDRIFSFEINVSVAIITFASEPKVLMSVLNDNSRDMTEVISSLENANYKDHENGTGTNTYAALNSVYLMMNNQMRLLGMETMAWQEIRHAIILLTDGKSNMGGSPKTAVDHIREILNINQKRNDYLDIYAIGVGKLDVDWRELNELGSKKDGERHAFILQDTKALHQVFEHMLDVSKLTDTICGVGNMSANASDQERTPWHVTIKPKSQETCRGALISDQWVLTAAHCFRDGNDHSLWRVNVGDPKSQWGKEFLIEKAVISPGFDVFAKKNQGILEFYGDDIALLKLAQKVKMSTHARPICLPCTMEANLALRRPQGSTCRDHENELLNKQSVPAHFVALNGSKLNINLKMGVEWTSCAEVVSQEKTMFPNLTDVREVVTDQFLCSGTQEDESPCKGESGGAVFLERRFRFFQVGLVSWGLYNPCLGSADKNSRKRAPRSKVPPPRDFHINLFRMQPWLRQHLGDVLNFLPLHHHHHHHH"}},
  "data": [
    {"binder": "RF16-242 (antibody, human IgG4 S228P, lambda, V domains shown, pH-dependent anti-C2 antibody from a phage display library) VH: EVQLLQSGAEVKKPGESLKISCKGSGYSFTSYWIGWVRQMPGKGLEWMGIIYPGDSDTRYSPSFQGQVTISADKSISTAYLQWSSLKASDTAMYYCARRGHYGDYFDYWGQGTLVTVSS VL: SYELTQPPSVSVSPGQTARITCSGDALPKKYAYWYHQKSGQAPVLVIYEDRRRPSEIPERFSGSSSGTMATLTITGAQVEDEGVYFCYSRDRAGNQRVFGGGTQLTVLG", "values": [
      {"measurement": "Kd", "setting": "human C2 Y328A", "value": 45.4, "unit": "nM"},
      {"measurement": "Kd", "setting": "human C2 D454A", "value": 35.4, "unit": "nM"},
      {"measurement": "Kd", "setting": "human C2 D441A", "value": 114, "unit": "nM"},
      {"measurement": "Kd", "setting": "human C2 E275A", "value": 42.8, "unit": "nM"}
    ]}
  ]
}
